Like-named read-outs stand apart in the source and are kept apart here.
Key:
Assay in all cases: co-sedimentation
[1] = molecular target: rabbit skeletal muscle actin (rabbit) (UniProt P68135)
[2] = molecular target: rabbit skeletal muscle actin (rabbit) (UniProt P68135); remark: listed apart in the source
[3] = molecular target: rabbit skeletal muscle actin (rabbit) (UniProt P68135); remark: listed apart in the source
[4] = molecular target: rabbit skeletal muscle actin (rabbit) (UniProt P68135); remark: listed apart in the source
[5] = molecular target: rabbit skeletal muscle actin (rabbit) (UniProt P68135); conditions: scale: molecules of actin per molecule of the 30,000-D protein

fraction of the 30,000-D protein co-sedimenting with actin [1]: 14%
fraction of the 30,000-D protein co-sedimenting with actin [2]: 29%
fraction of the 30,000-D protein co-sedimenting with actin [3]: 99%
stoichiometry N ([3]; scale: molecules of actin per molecule of the 30,000-D protein): 9.5
fraction of the 30,000-D protein co-sedimenting with actin [4]: 73%
stoichiometry N [5]: 10.3
Substance: Dictyostelium discoideum 30,000-D actin-binding protein (natural protein)

Source: publication PMC2114503
